Experimental data reported in US20250243282A1.

B1: 847.14H4 (antibody, from a related filing, V domains shown)
VH: QIQLVQSGPELTKPGETVKISCKASGYTFTDYGMNWVRQAPGETLKWMGWINTYTGEPTYADDFKGRFAFSLESSASTAYLQINNLKNEDVATYFCARYPMDYWGQGTSVTVSS
VL: QAVVTQESALTTSPGETVTLTCRSSTGAVTTSNYANWVQEKPDHLFTGLIGGTNNRAPGVPARFSGSLIGDKAALTITGAQTEDEAIYFCALWYSNHLVFGGGTKLTVL
B2: F846C.1H5 (antibody, V domains shown)
VH: EVQLLESGGGLVKPGGSLKLSCAASGFTFSSYAMSWVRQTPEKRLEWVASISSGGDTYYPDSVKGRFTISRDNARNILYLQMSSLRSEDTAMYYCASYGNSLFDYWGQGTTLTVSS
VL: DVVMTQTPLSLPVSLGDQASISCRSSQSLVHNSGNTYLHWYLQRPGQSPNLLIYKVSNRFSGVPDRFSGSGSGTDFTLKISRVAAEDLGVYFCSQSTHVPPTFGGGTKLEIKR
B3: TB006 (antibody, human IgG4 S228P, kappa, V domains shown)
VH: QVQLVQSGAEVKKPGASVKVSCKASGYSFTNYYMHWVRQAPGQRLEWMGWIYPGSGNTNYNEKFQGRVTITADTSASTAYMELSSLRSEDTAVYYCSTAPGGFDVWGQGTTVTVSS
VL: DIVMTQTPLSLSVTPGQPASISCKSSKSLLHSDGITYLYWYLQKPGQSPQLLIYRMSNLASGVPDRFSGSGSGTDFTLKISRVEAEDVGVYYCAQMLEFPLTFGQGTKLEIKR
B4: 14D11.2D2 (antibody, from another filing, V domains shown)
VH: QVQLKESGPGLVAPSQSLSITCTISGFSLSSYGVHWVRQPPGKGLEWLVVIWSDGSTTYNSTLKSRLSISKDNSKSQVFLKMNSLQTDDTAMYYCARHISNYGTMDYWGQGTSVTVS
VL: DIQMTQTTSSLSASLGDRVTISCRASQDIRNYLNWYQQKPDGSIKLLIYYTSRLHSGVPSRFSGSGSGTDYSLTIRNLEQEDIATYFCQHFNTLPPTFGGGTKLEIK

What was measured:
[1] = target: Recombinant human Gal3 (rhGal3) (TrueBinding, #QC200361) (human) (UniProt P17931); assay: cell-based or functional assay
[2] = target: cynomolgus Gal3 (cynomolgus); assay: method not stated (FIG. 20)
Wherever % inhibition of CD62L shedding is given: test concentration or dose not given here.
Wherever % inhibition of IL-6 secretion is given: test concentration or dose not given here.
Wherever % inhibition of TNFα secretion is given: test concentration or dose not given here.

Chain of Recombinant human Gal3 (rhGal3) (TrueBinding, #QC200361) (human) (P17931 2-250 limits assumed): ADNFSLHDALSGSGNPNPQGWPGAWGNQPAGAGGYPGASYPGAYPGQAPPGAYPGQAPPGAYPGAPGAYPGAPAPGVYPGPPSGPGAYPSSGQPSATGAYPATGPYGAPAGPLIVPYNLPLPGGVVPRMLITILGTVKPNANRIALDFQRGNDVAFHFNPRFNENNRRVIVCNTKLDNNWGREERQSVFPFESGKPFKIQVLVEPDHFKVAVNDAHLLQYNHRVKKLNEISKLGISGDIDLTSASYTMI
Chain of cynomolgus Gal3 (cynomolgus) (chain, as listed by the source): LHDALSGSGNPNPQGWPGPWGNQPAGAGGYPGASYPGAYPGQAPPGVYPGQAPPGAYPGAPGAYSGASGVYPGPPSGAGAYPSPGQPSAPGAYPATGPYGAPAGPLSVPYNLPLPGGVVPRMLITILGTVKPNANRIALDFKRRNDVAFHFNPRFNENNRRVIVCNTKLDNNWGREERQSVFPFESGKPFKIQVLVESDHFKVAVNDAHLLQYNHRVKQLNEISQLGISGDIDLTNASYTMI

| Binder | % inhibition of CD62L shedding [1] | % inhibition of IL-6 secretion [1] | % inhibition of TNFα secretion [1] | Kd [2] |
| --- | --- | --- | --- | --- |
| B1 | 34.4% | -71.4% | -181% |  |
| B2 | 100% | -49.7% | -162% |  |
| B3 |  |  |  | 5.1 nM |
| B4 | 86.2% |  |  |  |
